In PMC12598616, “Design and optimization of caspase-1-responsive fluorescent probes for pyroptosis imaging and anti-pyroptosis drug screening” (Chemical Science, 2025):

Molecular target: T1, caspase-1 (Homo sapiens, UniProt P29466)
T1 sequence (P29466 120-297 limits assumed): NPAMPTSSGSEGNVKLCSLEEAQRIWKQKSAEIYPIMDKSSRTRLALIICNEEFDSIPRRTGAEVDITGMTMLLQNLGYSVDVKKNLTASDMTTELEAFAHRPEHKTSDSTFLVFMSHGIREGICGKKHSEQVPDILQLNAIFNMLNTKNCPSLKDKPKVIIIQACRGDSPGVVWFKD
T1 sequence (P29466 317-404 limits assumed): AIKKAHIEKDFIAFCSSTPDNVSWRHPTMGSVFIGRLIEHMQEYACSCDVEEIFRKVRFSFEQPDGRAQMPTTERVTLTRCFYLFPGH
Experiment: Enzyme kinetic studies with caspase-1
Type: biochemical
Settings: probe 0.5–4 μM, Cas-1 2 U/mL, HEPES assay buffer, 37 °C, read every 2 min, λex 510 nm/λem 585 nm, Lineweaver-Burk plot; read-out: Michaelis constant (KM)
Protocol: The spectral and chemical properties of all probes were then evaluated. Upon interaction with Cas-1, the specific peptide of the probes is cleaved, leading to the disruption of the FRET process in the system and the recovery of donor fluorescence (Fig. 2a). Prior to fluorescence detection, the UV-vis absorption spectra of the probes were acquired. […] Subsequently, the sensitivity of the probes towards Cas-1 was measured in HEPES buffer (50 mM HEPES, 50 mM NaCl, 0.1% chaps, 5% glycerol, 10 mM DTT, 10 mM EDTA). […] The response differences among the probes were more intuitively observed by analyzing the standard curves of fluorescence intensity at 585 nm against the concentration of Cas-1 (Fig. 2b). […] The reaction kinetics of the probes were also measured by monitoring the fluorescence intensity of FPy1, YPy1 and WPy1 (0.5–4 μM) following incubation with Cas-1 (2 U mL^−1) (Fig. S3a–f). […] The reaction time of the probes was also investigated by monitoring the fluorescence spectra of the probes (5 μM) incubated with Cas-1 (2 U mL^−1) at various time intervals (Fig. S4a–c). […] Finally, the selectivity of the probes was evaluated. A series of potential biologically relevant interferents were selected, and the results illustrated that these interferents had no effect on the probes (Fig. S5a–c). […]

For “–FLTDG– [FPy1, RhoB donor, hNR quencher]”, the Km was 4.42 µM.
